Data as given in the domain aggregation screens of Martell et al. (2025).

Test: soluble fraction after stress (log2 fold change); higher = more stays soluble; pooled small domains, quantitative proteomics
Conditions: stress: 50 degC
Outline: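 The measure of aggregation propensity here is the base-two logarithm of the fold change in the soluble amount of each protein after stress. A higher value means more of that protein stays in solution. Stress was applied at 50°C to pooled libraries of small protein domains, read out by high-throughput quantitative proteomics.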

HMNMIGDVIRNLRTVSSMTQTELGQRMGVIKQTISNWEKNISTPSIDAIVKLSSIFNVPTDYLL
soluble fraction (log2): -1.06

HMQPSQTLSATVEFPDRLDRFLALAFPEVSRARFQRLIAEGHVSVEGVPATEIRHKLKAGQRVEAVIPPA
soluble fraction (log2): 0.0663

HMGGKAITGGEGEIIIRADKAETVAIYGIDGRLVHRVSTEAGDTKRVSVPAGIYIVKGAKVVV
soluble fraction (log2): ≥ 0.62

HMFQNYTDAVVVASKTFFYNMPDESTRKSAYLIQGDRIMVEKSQRNFVYVTFTNEASGRTTTGWLKSDDLE
soluble fraction (log2): -2.9

HMLLGDYIQKLRNQRGLSQQEFADKLGIGRSTLANYEQNKRSPDYETLIEISKFFNVSIDELLGV
soluble fraction (log2): -0.484

HMGSFAADVGRMVRLGRAKRGISRRKLAADSGISERYLAQIEGGQGNPSVNVLKAIADAISVPVFELLPH
soluble fraction (log2): -1

HMYPQLIGFKVIDEDKGEVGVVKEVSESMHQILLTVMKGKKEILIPLAEEFITKVNRHKKELFMVLPDG
soluble fraction (log2): 0.502

HMESIAEIDRMNAKIFMDEFQDSLSIMQKTTNPETFFSRYDLAMERLDNMVELQQKGIKFTSDLSSLKAQ
soluble fraction (log2): 0.0074

HMSETIVFGQQKAINTLSSEAGLSSAELNNYLKKRYQRPLFQLTVSEGADLIQGFQDGTLTKASITQYVSQ
soluble fraction (log2): -0.0548

HMKPFVVVPIDQVRVGMFIQLDLGWMQHPFPVGSFRVASEAQIDTLRSLDLESVRYLPAKSDPAFQQP
soluble fraction (log2): -2.1

HMTKSIDFDFREDGVYIKADKDVTIVDIVTKIDLRRIQSVDLTKIKQMLEIGSLDNWIKIAEPQMEK
soluble fraction (log2): 0.0472

HMPGSGELSRRLELAIRDRTAVRVTAAAAGQERSFTLLPVAITSGRLRATDEQAGVQRTLPLSAIVAVEA
soluble fraction (log2): -0.0911

HMKNINTNIGKNLKRIRKLRGLTIDALATSSGVSKSMISEIERGIRNPSITIIWSLANALKTPLNYFLKE
soluble fraction (log2): -0.115

HMSDKLTLPVQINGVFRYTIEINPSMQKDEIIDLVKNEERTAKYKQDKEIKNVIVVPGKIVNIII
soluble fraction (log2): 0.0263

HMAKLTPDQQELRAIRIELQMSQPDFADAININVPRLSSYEYGRTAGVPTSIMEAARELKRSMSR
soluble fraction (log2): -0.811

HMNYYYKDNQYWYVGFRYDERLVKEIKRFVGAGYNPENKEWYIPFTLPTVAPLQKWLHDNGFVEGMNYYP
soluble fraction (log2): -1.86

HMISESLLDEIPGLGETRRNSLLREFGSVAMIRKASAEEIASRVRGIGAEFAAAIHDFLQTH
soluble fraction (log2): -0.0611

HMSVDVEGNQRIPTEQVLSELRDVGVSFGKRVSGLNADTIRNQMIINNDEIAWLGVNVRGSRVYVEITERI
soluble fraction (log2): -0.018

HMSKKMTNEEILNFLKKVLIKHGKISGFIIDEDDNGPSSSVVASRFGGLLNAYKLINYTPER
soluble fraction (log2): -0.506

HMSFPLKRGSKGNRVTQLQNALVKKFGASILPKYGVDGMFGKEVEAALVRAKLPTSINESTYNSFV
soluble fraction (log2): 0.12

HMPLDYNELRSISPKAARQAILQILAANKGNVSATAKLLGVSRKTVYKAMHKKASGNLDDTSRAPK
soluble fraction (log2): -0.851

HMGLSIPLMGAKASDIEISTLNDEVQRKLKIIVKEQGHENLQRVVPLPSEAREIQAHFINGRLHLR
soluble fraction (log2): -0.0466

HMKQKAEVIFVSKTIMEALSKGVRLTPENLKSETELPIDDFYARLKELIDNGSVVESRENGESYLEAGN
soluble fraction (log2): 0.0977

HMSIPVLKDGTYESWGNEKVYKVGDRVMVGSNGYVAKWWNQDETPEKAIINPNDSPWRPMTESEIMEVLK
soluble fraction (log2): -0.0154

HMSMSVLFSELDQKDAGVIVEKLKERKIPYELQSGGSAIMVPANVLHETRLQLAAEGLPQSS
soluble fraction (log2): 0.0439

HMVLVLPGEMIHVQVIDEGKEMGQGVGYLDDGTMVVVENGLRHIGRAIDVQVTKVLQTNAGRMIFGQPIL
soluble fraction (log2): -0.137

HMAEVRTLLVPIELAGMRFDQVLAELLPEFSRSRLAAWIKSGDALLDGHDAKPKGVVRGGEQIEIRLA
soluble fraction (log2): 0.0321

HMKPGTIVTGVVVDIKSDVVVVNAGLKSEGIVPIEQFRNDRGELEVAIGDEVKVALDSLENGFGETVLSRE
soluble fraction (log2): 0.0252

HMIGRRLKVARASAGLSLRELAARMDGVVTPQAIGKYERNEDMPGSRALMALASALGVSEGYLLSD
soluble fraction (log2): -0.831

HMGPTLTDEEEVVLNLLEKNHPVLLSELKENAGLSNKKWDKAIKGLSAHKLAKVTKTDDGLFVHLS
soluble fraction (log2): 0.0395

HMYEPPTEDEKRVLSLLATRESIVRSDVDRLLGVSQSTANRILKQMIEKYLISQEGTGKNTKYIK
soluble fraction (log2): -0.0391

HMDLSPEQAELAAIRGELGIKIDDYALALNIPRDRLTSYLYGRANVPAEVLISARELRYASSA
soluble fraction (log2): 0.00303

HMDLEMLEVEDTIKDLLSQHQKINAIKYYRNYMSEQLNVDMGLRQAKDTIDAIGRGATVDLSVGY
soluble fraction (log2): -0.0705

HMEQVPEAVGRRVRQARSDRGWTLDQLAERSEVSRRMIVNVEAGTSNASIATLLRLATALNVGLAELVA
soluble fraction (log2): -1.41

HMNVYEVKFGDTLDEIIKTYLFDIPVKKSILRQAVILANPHAFRRNNPHWMYSDRQLKLPELQDIRRAIF
soluble fraction (log2): -0.276

HMSTVISPLPGNIIKVLVPEGKSVKRGDTILTIESMKMENSIKAAYDGVVKKIYVQQAQIVMQGDPLFDL
soluble fraction (log2): -1.24

HMNSLGYSDFVVDVQNERVASVVIEGLIINGERRDGTKFRTVLPTIGDQRLMDDLINHNVKVLARE
soluble fraction (log2): 0.236

HMGSKDLPFSTFMSEIDKGNITSVDIRGNEIQGTFANGTKFRTYSPNYPNLVEKLNGKGVSITAGPV
soluble fraction (log2): 0.215

HMPSGLFEPIKKSELSIESIDLLKDQIRAFKQADIRITFGFLLDLITKGENPAYVNASKLFEQAWER
soluble fraction (log2): 0.0685

HMTALSAREHEVLQLITRGYTADEIAAMLQISRHTALTYVRRIYSKLKVNSKAEAIFEVRQR
soluble fraction (log2): -0.577

HMLTTADLMMVHANSNKAIDYIVTDDNTKLTVDEPVTAKWITTADSIYRAVAYYNKVGDGKAQIVSVGN
soluble fraction (log2): 0.0204

HMYSDERLQTFMELLPFFVEELSNKHVTRYNVWQNYREAYPNGYGRSQFFFHLGQNLEAKKK
soluble fraction (log2): -1.17

HMQLEPLVTSVIPVNFAKASDISGTIKGKEVGLLSERGNITAENRTNVLIVKDIRKSVDEINAMVKRLD
soluble fraction (log2): -0.0183

HMATETMGMIIRRLRREHGLTQEELAASIGVTAQAVSKWEKDLGMPDISQIVPLAGAFNVRTDVLFGLE
soluble fraction (log2): -0.98

HMNVRAYKVSKESELTVEEKLEAVRGYGVADLLYVIREFEENPGKYEPEVIKLIVQQLTDKGIM
soluble fraction (log2): 0.199

HMVYNGYYAKSFNGYVVILNGDEKTVYEYTQIPIHLLPEDIRSSVMSGYYLENETDLYNFLENYS
soluble fraction (log2): -0.822

HMAPNVEENSKLIGEIGMTLTPLRPSGIATINNRRVDVVSNGDFIDQDERVMVKRVQGARVVVIPV
soluble fraction (log2): 0.109

HMNKMIIELGEKLKALRTENHLRQDQVARLVNVEKSSISMYETGMRQPSYTTLVRLADVFNVTTDYLLGRK
soluble fraction (log2): -2.24

HMKLSKLTKPELDEIFRNANFTEEEEKVFWLLARGKSLEQISAKTFLPIATVNRRVKSIKDKIG
soluble fraction (log2): 0.0605

HMRPTYRTRLEVLINNPAISGRDLDFAQSLLSYYERKGRLSAGRVKWVTTLEERYSPENLAASAAK
soluble fraction (log2): -0.828

HMRMYDVNEYSDEELHRILDLSSPTDSELEARILQMIQKYKYTNGGDNEKMAVFFENIYHHFFD
soluble fraction (log2): -1.5

HMTIENTDTFLETLWEQVQRASVDENGIITSRVLIWDEGTKLDEILSWFDKRHSLGALYLQFG
soluble fraction (log2): -2.47

HMAPMYGEFENVRLTDAQLDKLNARFPPEQVQREIEALSGYMRSKGKRYADHYATLLNWLRRDFPP
soluble fraction (log2): -0.202

HMDVNPETLSYYIERADISLDELRTSVKGIDLFLTGEKQPTFNQISNIAKKLNIPTGLLLINKPIEI
soluble fraction (log2): -0.375

HMGPLDIAQLKSDFLGGDAQLARRAWDQLATKAGDEGRDFLISSLGSSDPQIRNRVALGIHES
soluble fraction (log2): 0.0489

HMAQSLAQKINNYILTNRSSIANVAKSIGYSRTTVSRYLAGKYDSDPTDLENKLAEFLAHETGE
soluble fraction (log2): 0.076

HMGIDVSAFSDTALEVLRLQAAGYTTREIAQQLHITQRTVKYHASENYRKLDARNLVDAVQIAQSLHI
soluble fraction (log2): -1.41

HMPLTEMAVRKHLSAELAQKGYTIDPRALEILLQRTNTNLTAIANELPKLLLVAEDKQITVNEVSAM
soluble fraction (log2): -0.164

HMEYRVRDKMTDILELLTEHRGRIALRDAFPTGTREELLAAFLALLELTKMQTVIVYQDRLYDDIQIVMK
soluble fraction (log2): -0.204

HMVDLANIDPIASSIKLNGAEADASFNTLEDRRVSVSGSFEENKNYTMEYTFKDYAGGSVTGTLDFKTLA
soluble fraction (log2): 0.137

HMIMNLNVLANNVRRLRTAQRLSQSALASKAGLSVPAIKNLENARNEPRVNTVQVIAHALEVRLQDLFAPT
soluble fraction (log2): -1.62

HMPTPRVPMSKQRQILQLLQDGHLSTREIAAALHISKTSVGDIAKAARLAGLDWEAASKLSDEELSARIYK
soluble fraction (log2): -0.00175

HMQNLETVEEIKELALNYLDKYQPSKKSLQVYLFRKAIDAQSNSVEKSEILKKIETVLTDLEEQGILNDAL
soluble fraction (log2): 0.0664

HMNNLTEEAINHLVLEVKNVLLTDALFLGKATDSQLMLRIKETIDQRNGQYNIGMNDRERIARRVFARLR
soluble fraction (log2): -0.189

HMKTRYPNVYQDEKGKFFYQIFIGTDTNGRKKLKKGRRDALGHPFSSAYQASKEAKRVQALYANVS
soluble fraction (log2): -1.23

HMADRLITLSEVASLLRVSRHTVQAWISPSSPNHRPEFAIMARHAGRRTVFIEAEVTAWLDQRRG
soluble fraction (log2): -1.95

HMEALNIEQKKVEIINVLLEKGKGKGRLSYKEISDQIDTVELDKDQMDELYETLMTNGIEIV
soluble fraction (log2): 0.114

HMSISSSEAARSAVASSGGTVLGVSKASHGGYKAWAVRIQRADGSVVTGYVDRASGTVYDWVVNQAA
soluble fraction (log2): -0.3

HMAQTEIIRVTKDIKKGDAITADKFEKVKVGAYNLPGNVVKNADELKGKFAAADLVRGDYILTSKLTDNP
soluble fraction (log2): 0.146

HMENDPYEILGIARSASDDEIKAKYRALTRENHPDILMAKGVPQEFIDLANEKMAVINAAYDKIEKER
soluble fraction (log2): 0.292

HMKDEGSLKVIGQMVVIGIPQSEAKRFANTYTVAQIRAALQYTQKRSEDKNASKLENVAAYFRQALVRNWG
soluble fraction (log2): -1.36

HMTQLEVDLFERLITISGVGPRLALAVLSGLEPPDLLRAIQDSDIVRLQGIPGVGKKTAERISLELKDKLS
soluble fraction (log2): -0.963

HMTIFGWQTDETGKWYRNADGTFFEAGWKEIDGAKYYFDENGYVKTGWLELDGKDYYFDEEGRYDSSKVR
soluble fraction (log2): -0.33

HMEAGLRMPEQLTAFSALALLQKVRDSGPLTDAQKEQLDADVLRIEASHFGKADREALELEEILKQWLSRV
soluble fraction (log2): -0.135

HMDREILWTNYVAARKQEFIASSIDTIGAEYLDNRRFWDTQFEREWTIIAERLASGFGLTDDILSIVGSDF
soluble fraction (log2): -4.12
